What was measured:
Settings in all cases: both partners purified
[1] = biological target: T1, 17beta-hydroxysteroid dehydrogenase type 10 (human, UniProt Q99714 1-261); assay: SPR; cypD held on immobilised Ab(cypD); 100 nM 17β-HSD10 flowed for 7 min; 10 mM HEPES, 200 μg/ml BSA, 5 mM Na+, pH 7.4 or 7.8, with K+ (up to 140 mM), Mg2+ or Ca2+ (up to 2.5 mM) alone or K+ and Mg2+ combined; 25 °C; reference channel without cypD
T1 construct: the oligomeric state was not measured; also called 17β-HSD10; 17beta-hydroxysteroide dehydrogenase 10; source: bought: Fitzgerald, USA (human, recombinant)
T1 sequence (looked up): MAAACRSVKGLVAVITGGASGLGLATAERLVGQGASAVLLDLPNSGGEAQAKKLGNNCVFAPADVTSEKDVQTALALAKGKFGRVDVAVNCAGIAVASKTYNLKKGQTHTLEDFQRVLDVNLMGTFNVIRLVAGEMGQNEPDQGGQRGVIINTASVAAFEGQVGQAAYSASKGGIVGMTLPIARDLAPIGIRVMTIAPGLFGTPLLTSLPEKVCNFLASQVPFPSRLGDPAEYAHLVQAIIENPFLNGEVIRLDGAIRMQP

amyloid-β peptide 1–42 = biological target: T2, amyloid-β peptide 1–42 (human, UniProt P05067 672-713); assay: SPR; cypD held on immobilised Ab(cypD); 17β-HSD10 (100 nM), Aβ1–40 or Aβ1–42 (50-1000 nM, mostly 500 nM) or their mixtures, incubated at 37 °C beforehand (1 hour; or Aβ alone 0-180 min, then 10 min with 17β-HSD10), flowed for 7 or 10 min; HEPES_FINAL (10 mM HEPES, 200 μg/ml BSA, 5 mM Na+, 15 mM K+, 0.1 mM Mg2+, pH 7.4); 25 °C
T2 construct: amyloid-β peptide, residues 1-42 (42 aa), human, cut product of the amyloid precursor protein; numbers count on: the Aβ peptide; Incubated at 37 °C before injection; the authors take it to form oligomers of a size that was not measured; also called Aβ1–42; Aβ_(1–42); source: synthetic peptide; bought: AnaSpec, USA
T2 sequence (P05067 672-713): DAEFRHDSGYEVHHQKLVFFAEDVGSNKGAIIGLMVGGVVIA

amyloid-β peptide 1–40 = biological target: T3, amyloid-β peptide 1–40 (human, UniProt P05067 672-711); assay: as above
T3 construct: amyloid-β peptide, residues 1-40 (40 aa), human, cut product of the amyloid precursor protein; numbers count on: the Aβ peptide; The authors take it to stay monomeric under the conditions used; also called Aβ1–40; Aβ_(1–40); source: synthetic peptide; bought: AnaSpec, USA
T3 sequence (P05067 672-711): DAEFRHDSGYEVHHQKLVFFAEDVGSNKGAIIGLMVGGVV

Measured: binding result

B1: cyclophilin D (enzyme)
chain: not shown
notes: cyclophilin D (cypD), human, recombinant; Held on the chip through an immobilised antibody against cypD; also called cypD; source: bought: Fitzgerald, USA (human, recombinant)
binds: all assays above

From publication PMC6853915 (Scientific Reports, 2019)
